Assay results as given in paper PMC11680790 (2024).

Tests used:
[1] = biological target: T1, NXE’992, chimeric peptide (pyrazole-QRPRL[AIB]S[PipALA]VPFP) (UniProt Q9ULZ1, pyrazole on the N-terminus; AIB at position 6; PipALA at position 8); assay: SPR; pH 6.0
[2] = biological target: T1, NXE’992, chimeric peptide …; assay: SPR; pH 7.5

B1: human apelin stabilised receptor (NxStaR) (receptor)
chain: MEEGGDFDNYYGADNQSECEYTDWKSSGALIPAIYMLVFLLGTTGNGLVLWTVFRSSREKRRSADIFIASLAVADLTFVVTLPLWAVYTYRDYDWPFGTFFCKLSSYLIFVAMYASVFCLTGLSFDRYLAIVRPVANARLRLRVSGAVATAVLWVLAALLAMPVMVLRTTGDLENTTKVQCYMDYSMVATVSSEWAWEVGLGVSSTMVGFVVPLTIMLTCYFFAAQTIAGHFRKERIEGLRKRRRLLSIIVVLVVTFALCWMPYHLVKTLYMLGSLLHWPCDFDLFLMNIFPYCTCIAYVNSCLNPFLYAFFDPRFRQACTSMLCCGQSRCAGTSHSSSGEKSASYSSGHSQGPGPNMGKGGEQMHEKSIPYSQETLVVD
Question: Which results are given for B1?
Answer: Kd [1]: 0.021 µM; Kd [2]: 0.0033 µM
